Measured values: publication PMC9213739, “Substrates and Loaded Iron Ions Relative Position Influence the Catalytic Characteristics of the Metalloenzymes Angelica archangelica Flavone Synthase I and Camellia sinensis Flavonol Synthase” (Frontiers in Pharmacology, 2022)

Test system: T1, COc1ccc([C@@H]2CC(=O)c3c(O)cc(O)cc3O2)cc1O
T1 construct: synthetic gene in pET-28a(+) (NcoI/XhoI), expressed in E. coli BL21(DE3); 365 residues
Experiment: UPLC-MS product formation, Lineweaver-Burk
Format: biochemical, Angelica archangelica
Conditions: diosmetin formation (main product), Tris-HCl pH 7.5, 23 °C, 1 h, 5 mM 2-mercaptoethanol, 1 mM NADPH, 'separated protein', purification not described
Excerpt: UPLC-MS product formation, Lineweaver-Burk on […]

AnFNS I (Angelica archangelica), sequence (chain, as listed by the source): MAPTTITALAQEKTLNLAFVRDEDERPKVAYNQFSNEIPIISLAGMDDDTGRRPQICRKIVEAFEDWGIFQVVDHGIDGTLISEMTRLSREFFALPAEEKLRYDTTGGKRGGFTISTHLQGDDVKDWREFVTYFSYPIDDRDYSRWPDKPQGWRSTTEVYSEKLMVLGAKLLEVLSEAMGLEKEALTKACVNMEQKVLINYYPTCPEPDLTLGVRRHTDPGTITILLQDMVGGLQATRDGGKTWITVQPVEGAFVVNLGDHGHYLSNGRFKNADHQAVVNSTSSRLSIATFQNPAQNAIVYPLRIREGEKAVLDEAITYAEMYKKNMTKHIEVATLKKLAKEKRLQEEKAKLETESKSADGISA

With AnFNS I (Angelica archangelica) as the substance, how does the Km read?
The Km was 59.04 µM.

What about the Vmax of the same substance?
The Vmax was 0.0366 µmol/min/mg.

What about the kcat of the same substance?
The kcat was 0.0249 s⁻¹.

What about the kcat/Km of the same substance?
Its kcat/Km is 423 M⁻¹ s⁻¹.
